{"source": "paper PMC11500106", "about": "“Characterization of Medusavirus encoded histones reveals nucleosome-like structures and a unique linker histone”", "molecular_target": "eH1.0 (Mus musculus, UniProt P10922 1-194)", "sequence (P10922 whole entry)": "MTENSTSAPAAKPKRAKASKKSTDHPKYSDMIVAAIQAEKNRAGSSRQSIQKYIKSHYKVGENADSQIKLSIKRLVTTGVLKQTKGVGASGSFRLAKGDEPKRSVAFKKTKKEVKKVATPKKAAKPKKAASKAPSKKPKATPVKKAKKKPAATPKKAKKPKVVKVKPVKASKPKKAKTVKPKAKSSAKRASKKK", "test": "fluorescence polarization; unit inferred from the titration (0-10 uM; fitted as EC50); FP: 20 mM Tris pH 7.5, 1 mM DTT, 1 mM EDTA, room temperature, 1 h, 10 nM DNA; reconstitution: salt-gradient dialysis 2 M to 50 mM NaCl", "conditions": "protein: recombinant; label: 5' 6-FAM; only one strand printed (Results call it a 35-mer)", "data": [{"binder": "GCAGCTGGCACGACAGGTATGAATC (mixed)", "note": "[FP 25-mer DNA]", "values": [{"measurement": "Kd", "result": 18.1, "unit": "nM"}]}]}
